Data on 2 molecules can be found in article PMC6591006, “Broad and Potent Neutralizing Antibodies Recognize the Silent Face of the HIV Envelope” (Immunity, 2019).

Test [1] addresses T1, YU2 gp140 foldon trimer (wild type) (HIV-1 group M subtype B isolate YU-2, UniProt P35961, stabilised).
T1 construct: also called uncleaved YU2 gp140 foldon trimer; YU2 gp140 WT; source: 293-6E, transiently transfected, purified (Ni-NTA)
The experiment in a line: ELISA; YU2 gp120/gp140 proteins coated on the plate at 2 μg/ml; IgG in a 1:3 dilution series from 4 or 10 μg/ml, 1 h at room temperature or 37°C, in 1% BSA in PBS; detected with anti-human IgG. The following applies: both partners purified.

Test [2] has as its target T2, YU2 gp120 monomer (wild type) (HIV-1 group M subtype B isolate YU-2, UniProt P35961).
T2 construct: also called monomeric YU2 gp120; YU2 gp120 WT; source: 293-6E, transiently transfected, purified (Ni-NTA)
Described as above. The following applies: both partners purified.

Numbering of substitutions follows the chain as printed.

B1: Monoclonal anti-HIV-1 Env SF12 (IgG) (antibody, V domains shown)
VH: QVQLQESGPGLVKPSETLSVTCRVSGGSLDLYYWSWIRQPPGKGLQWIGFVYFDGSYGDYDPSLRSRVTISADMSKNQISLRLKSVTPADTAVYYCARLGPGGIFDRWTGHYGDKWLDPWGQGTLVTVSS
VL: QIDLTQSPRTLSLSAGERATLLCRASQSVSNVALAWYQHKPGQAPRLLLHEASTRATGIPDRFIGSGSGRDFTLTITSLEPEDFAVYYCQLSGRRLGQGTKVEIK
Take B1: the binding result in test [1] and in test [2] was “binds” each time.

B2: Monoclonal anti-HIV-1 Env SF5 (IgG) (antibody, V domains shown)
VH: B1 VH with L31R, K43E, F50H, S71T, N77Y, S80I, K84R
VL: B1 VL with D3V, T54I, T57A, I64V, E80H, Q98P
For B2, the binding result in test [1] and in test [2] was “binds” in each case.
